Results as given in article PMC12276895 (2025).

B1: nTrimer2 homotrimeric miniprotein (designed binder)
chain: SPVKRFVREVLEEAEEAYEKGDRRQFEELLWLAEWAARDANDEELEEEIREFEKEVKGSGKRIDEIESKLKHLEEFTTHLIKLMETMLELLKLVSDGKSDSEEYKELLEKAEEYLKQATEAAKKI
B2: nTrimer5 homotrimeric miniprotein (designed binder)
chain: SPVKRFVREVLEEAEEAYEKGDRRQFEELLWLAEWAARDANDEELEEEIREFEKEVKGSGMTRLEQLLAQGVDPFEVLREKIEKLKEIWKKYEEAKGEEKERYRDELLKLMMEVLELMVELLSRR
B3: nTrimer1 homotrimeric miniprotein (cb3-GSG-Trimer1) (designed binder)
chain: SPVKRFVREVLEEAEEAYEKGDRRQFEELLWLAEWAARDANDEELEEEIREFEKEVKGSGSEALEELEKALRELKKSTDELERSTEELEKNPSEDALVENNRLIVENNKIIVEVLRIIAKVLK

Target: prefusion biotinylated MERS-CoV EMC/2012 S ectodomain trimer (MERS-CoV EMC/2012, UniProt K9N5Q8 18-1296)
Test: SPR

Binder | Kd [pM]
B1 | 27
B2 | 32
B3 | 21
